Measurements as given in patent EP2479185A1 (INSTITUT PASTEUR, dated 2012).

Legend:
[1] = target: the molecule itself; assay: SDS-PAGE and MALDI-TOF MS of purified VAPs (self-assembly)
[2] = target: the molecule itself; assay: heterologous expression in E. coli and electron microscopy of thin sections (self-assembly)

B1: P98 protein of Sulfolobus islandicus rod-shaped virus 2 (SIRV2) (other)
chain: MAITLLEGALYGFFAVTGILVGSFVVGEIVHLYNEKQNNENFAKAVDQMSKSTVIAVESIKDTTTTAINALLNMDTLRDVNALAREKAKDQNPNTQAK
notes: Assayed as assembled VAPs (homomultimeric pyramids) from SIRV2-infected S. islandicus; Also used here for P98 expressed from pSVA1059 in S. acidocaldarius, for which no tag is stated; The number of monomers per VAP was not measured; also called SIRV2-P98; protein 98
B1: binds [1].

B2: recombinant C-terminal his-tagged P98 expressed in E. coli Rosetta(DE3)pLys from pSVA1051 (other)
chain: MAITLLEGALYGFFAVTGILVGSFVVGEIVHLYNEKQNNENFAKAVDQMSKSTVIAVESIKDTTTTAINALLNMDTLRDVNALAREKAKDQNPNTQAK
notes: Found primarily in the E. coli membrane fraction, where it forms closed VAPs on the inner membrane; also called recombinant P98; E. coli 1051 expressing SIRV2-ORF98; not shown: C-terminal his tag
B2: binds [2].
